From patent US5310662

Experiments:
[1] = system: G-gal-G (hGR with DNA-binding domain replaced by GAL4 residues 1-74) (Homo sapiens / Saccharomyces cerevisiae); test: cell_activity
[2] = system: GAL4 (Saccharomyces cerevisiae); test: cell_activity; details: CAT reporter; lost on deletion of the GAL4 site
[3] = system: hGR G421 421G (Homo sapiens); details: immunoprecipitation DNA binding; transcription <1
[4] = system: hGR G423 423G (Homo sapiens); details: immunoprecipitation DNA binding; transcription <1
[5] = system: hGR G424 424G (Homo sapiens); details: immunoprecipitation DNA binding; transcription <1
[6] = system: hGR G426 D426G (Homo sapiens); details: immunoprecipitation DNA binding; transcription 75
[7] = system: hGR G431 C431G (Homo sapiens); details: immunoprecipitation DNA binding; transcription 80
[8] = system: hGR G432 432G (Homo sapiens); details: immunoprecipitation DNA binding; transcription 10
[9] = system: hGR G433 433G (Homo sapiens); details: immunoprecipitation DNA binding; transcription 2
[10] = system: hGR G437 437G (Homo sapiens); details: immunoprecipitation DNA binding; transcription 20
[11] = system: hGR G438 438G (Homo sapiens); details: immunoprecipitation DNA binding; transcription <1
[12] = system: hGR G441 441G (Homo sapiens); details: immunoprecipitation DNA binding; transcription <1
[13] = system: hGR G442 K442G (Homo sapiens); details: immunoprecipitation DNA binding; transcription <1; specificity minimally affected
[14] = system: hGR G444 444G (Homo sapiens); details: immunoprecipitation DNA binding; transcription <1
[15] = system: hGR G445 445G (Homo sapiens); details: immunoprecipitation DNA binding; transcription <1
[16] = system: hGR G446 446G (Homo sapiens); details: immunoprecipitation DNA binding; transcription 40; may be unstable in vitro
[17] = system: hGR G447 447G (Homo sapiens); details: immunoprecipitation DNA binding; transcription <1
[18] = system: hGR G450 450G (Homo sapiens); details: immunoprecipitation DNA binding; transcription 60
[19] = system: hGR G453 453G (Homo sapiens); details: immunoprecipitation DNA binding; transcription 90
[20] = system: hGR G455 455G (Homo sapiens); details: immunoprecipitation DNA binding; transcription 80; may be unstable in vitro
[21] = system: hGR G457 457G (Homo sapiens); details: immunoprecipitation DNA binding; transcription <1
[22] = system: hGR G460 460G (Homo sapiens); details: immunoprecipitation DNA binding; transcription 55
[23] = system: hGR G462 462G (Homo sapiens); details: immunoprecipitation DNA binding; transcription 80
[24] = system: hGR G463 463G (Homo sapiens); details: immunoprecipitation DNA binding; transcription <1
[25] = system: hGR G465 465G (Homo sapiens); details: immunoprecipitation DNA binding; transcription 1
[26] = system: hGR G467 467G (Homo sapiens); details: immunoprecipitation DNA binding; transcription 40; may be unstable in vitro
[27] = system: hGR G470 470G (Homo sapiens); details: immunoprecipitation DNA binding; transcription 3
[28] = system: hGR G471 471G (Homo sapiens); details: immunoprecipitation DNA binding; transcription 10
[29] = system: hGR G473 473G (Homo sapiens); details: immunoprecipitation DNA binding; transcription <1
[30] = system: hGR G474 474G (Homo sapiens); details: immunoprecipitation DNA binding; transcription 60
[31] = system: hGR G476 476G (Homo sapiens); details: immunoprecipitation DNA binding; transcription <1
[32] = system: hGR G477 477G (Homo sapiens); details: immunoprecipitation DNA binding; transcription <1
[33] = system: hGR G479 479G (Homo sapiens); details: immunoprecipitation DNA binding; transcription 65
[34] = system: hGR G480 480G (Homo sapiens); details: immunoprecipitation DNA binding; transcription 90
[35] = system: hGR G481 481G (Homo sapiens); details: immunoprecipitation DNA binding; transcription <1
[36] = system: hGR G486 486G (Homo sapiens); details: immunoprecipitation DNA binding; transcription 10; may be unstable in vitro
[37] = system: hGR delta420-451 del420-451 (positions given are the non-deleted residues at the junction) (Homo sapiens); details: immunoprecipitation DNA binding; transcription <1
[38] = system: hGR delta450-487 del450-487 (positions given are the non-deleted residues at the junction) (Homo sapiens); details: immunoprecipitation DNA binding; transcription <1
[39] = system: hGR-SB (human glucocorticoid receptor, wild-type-equivalent parent) (Homo sapiens); details: immunoprecipitation DNA binding, reference; transcription 100

In the case of “deltaMTV-CAT promoter (GREs deleted, no GAL4 site)”, the activity (% of deltaMTV-GAL-CAT) ([1]; possible cryptic GAL4 site) is reported as 5.

With “deltaMTV-GAL-CAT promoter with synthetic GAL4 site 17MX” the activity ([1]; CAT reporter, hormone dependent) was 500 fold and the activity [2] was 20 fold.

In the case of GRE-containing DNA fragment, the binding signal [3] is reported as < 1 % of hGR-SB, the binding signal [4] is reported as < 1 % of hGR-SB and the binding signal [5] is reported as 1 % of hGR-SB. The binding signal [6] was 75 % of hGR-SB, the binding signal [7] was 10 % of hGR-SB and the binding signal [8] was 30 % of hGR-SB. For the same substance, the binding signal [9] was 1 % of hGR-SB, the binding signal [10] was 8 % of hGR-SB and the binding signal [11] was < 1 % of hGR-SB. For the same substance, the binding signal [12] was < 1 % of hGR-SB, the binding signal [13] was 60 % of hGR-SB and the binding signal [14] was 1 % of hGR-SB. For the same substance, the binding signal [15] was < 1 % of hGR-SB, the binding signal [16] was 6 % of hGR-SB and the binding signal [17] was 2 % of hGR-SB. For the same substance, the binding signal [18] was 50 % of hGR-SB, the binding signal [19] was 60 % of hGR-SB and the binding signal [20] was 6 % of hGR-SB. The binding signal [21] was 2 % of hGR-SB, the binding signal [22] was 90 % of hGR-SB and the binding signal [23] was 40 % of hGR-SB. The binding signal [24] was 1 % of hGR-SB, the binding signal [25] was 1 % of hGR-SB and the binding signal [26] was 6 % of hGR-SB. The binding signal [27] was 4 % of hGR-SB, the binding signal [28] was 6 % of hGR-SB and the binding signal [29] was < 1 % of hGR-SB. For the same substance, the binding signal [30] was 95 % of hGR-SB, the binding signal [31] was < 1 % of hGR-SB and the binding signal [32] was 1 % of hGR-SB. The binding signal [33] was 40 % of hGR-SB, the binding signal [34] was 50 % of hGR-SB and the binding signal [35] was 3 % of hGR-SB. For the same substance, the binding signal [36] was 1 % of hGR-SB, the binding signal [37] was 1 % of hGR-SB and the binding signal [38] was 1 % of hGR-SB. It also gave a binding signal [39] of 100%.
